What was measured:
[1] = target: T1, HER2-Fc (species not stated); experiment: ELISA (Table 2; species of Her2 not given)
T1 construct: probably human
Description: (§1) Human and murine ErbB2-Fc were obtained from R&D Systems. Wells of 96-well plates were coated with 2 ug/ml or 0.2 ug/ml of human or murine HER2-Fc by incubation overnight at 4-8° C. with either of these six proteins (80 ul/well of a 0.2 or 2 ug/ml solution in PBS). Wells were emptied, filled completely with a solution of PBS with 1% BSA (blocking buffer) and incubated at room temperature for 1 hour. Wells were emptied, washed twice PBS containing 0.05% Tween 20 (PBST) and filled with the samples (80 ul/well of 3× dilution series of the standard and supernatants in blocking buffer) prepared in another 96-well plate. After a 2-hour incubation at room temperature, the wells were emptied, washed three times with PBST and filled with a solution of HRP-conjugated goat pAbs anti-human kappa chain (80 ul/well of a 2000-fold dilution in blocking buffer). After 1-hour incubation, the wells were emptied and filled with a solution of HRP substrate prepared freshly. The color was left to develop for 3 minutes and was stopped by addition of an equal volume of 1N H₂SO₄. Absorbance was measured at 450 nm using a Plate Reader (SpectraMax, Molecular Devices). The data was processed and graphs were created using SoftMax Pro software.

[2] = target: LTβR on human tumor cells (SKBR-3, HT29) (human, UniProt P36941 31-435); experiment: cell-based or functional assay
[3] = target: T2, human HER2/ErbB2, full length, on cells (human, UniProt P04626 23-1255); experiment: FACS (Table 2; cells not given, Examples 14-16 use SKBR3 or CHO/hHER2)
T2 construct: whole, on cells; also called hHER2/ErbB2; wild type HER2/ErbB

human HER2-Fc = target: T3, human HER2-Fc (human, UniProt P04626 23-652); experiment: ELISA on coated huHER2-Fc, detection anti-human kappa-HRP; value is C (midpoint) of the printed 4-P fit; x axis Fab equivalent concentration
T3 construct: extracellular domain; Homodimeric fusion protein from R&D Systems; also called human ErbB2-Fc; rhErbB2-Fc; not shown: Fc fragment of human IgG1

[4] = target: T4, HVEM-Ig (species not stated); experiment: FACS (Table 2; format not given, Example 16 detects HVEM-Fc on cell-bound fusion)
T4 construct: also called HVEM-Fc

[5] = target: T5, LTβR-Ig (species not stated); experiment: ELISA (Table 2; species of LTbR not given)
T5 construct: also called LTβR-human Fc fusion
Description: as §1
Human and murine LTBR-Ig were expressed and purified in house.

[6] = target: T5, LTβR-Ig (species not stated); experiment: FACS (Table 2; format not given, Example 16 detects LTbR-Ig on cell-bound fusion)
[7] = target: T4, HVEM-Ig (species not stated); experiment: ELISA (Table 2; species of HVEM not given)
Description: as §1
Human and murine HVEM-Ig were expressed and purified in house.

[8] = target: T5, LTβR-Ig (species not stated); experiment: biolayer interferometry (Octet), receptor Fc fusion on anti-human Fc sensor, culture supernatant
Description: (§2) Anti-human Fc-specific biosensors (Fortebio SKU 18-0001) were hydrated in OB (1×PBS supplemented with 1 mg/ml BSA, 0.05% NaN₃, and 0.02% TWEEN 20) for at least five minutes prior to assays. For each assay, the respective receptor Fc fusion was diluted to 10 μg/ml in OB and allowed to bind to the biosensors for five minutes. The sensors were then incubated in the indicated culture supernatant for an additional five minutes, and subsequently transferred to fresh wells […].

[9] = target: T4, HVEM-Ig (species not stated); experiment: as above
Description: as §2

[10] = target: T1, HER2-Fc (species not stated); experiment: as above
Description: as §2

murine HER2-Fc = target: T6, murine HER2-Fc (mouse; human, UniProt P70424 23-653); experiment: ELISA on coated muHER2-Fc, detection anti-human kappa-HRP; value is C (midpoint) of the printed 4-P fit; x axis Fab equivalent concentration
T6 construct: extracellular domain; Homodimeric fusion protein from R&D Systems; also called murine ErbB2-Fc; not shown: Fc fragment of human IgG1
T6 sequence (P70424 23-653): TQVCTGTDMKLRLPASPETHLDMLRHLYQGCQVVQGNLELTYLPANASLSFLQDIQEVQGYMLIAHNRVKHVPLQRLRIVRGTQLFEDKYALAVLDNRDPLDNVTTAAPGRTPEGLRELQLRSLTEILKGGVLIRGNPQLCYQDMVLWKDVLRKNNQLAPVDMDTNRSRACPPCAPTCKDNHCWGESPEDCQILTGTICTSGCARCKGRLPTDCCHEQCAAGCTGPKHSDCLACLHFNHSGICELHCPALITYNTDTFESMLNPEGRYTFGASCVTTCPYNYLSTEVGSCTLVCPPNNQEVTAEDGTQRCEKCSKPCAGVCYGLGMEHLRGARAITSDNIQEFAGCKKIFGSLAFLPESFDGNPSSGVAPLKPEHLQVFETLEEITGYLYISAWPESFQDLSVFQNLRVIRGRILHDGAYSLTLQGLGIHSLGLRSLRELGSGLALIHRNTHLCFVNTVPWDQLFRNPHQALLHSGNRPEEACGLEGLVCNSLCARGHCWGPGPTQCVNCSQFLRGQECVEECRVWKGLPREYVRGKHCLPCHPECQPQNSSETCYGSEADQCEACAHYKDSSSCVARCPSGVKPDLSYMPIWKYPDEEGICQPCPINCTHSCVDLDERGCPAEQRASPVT

T5 sequence (P36941 31-227): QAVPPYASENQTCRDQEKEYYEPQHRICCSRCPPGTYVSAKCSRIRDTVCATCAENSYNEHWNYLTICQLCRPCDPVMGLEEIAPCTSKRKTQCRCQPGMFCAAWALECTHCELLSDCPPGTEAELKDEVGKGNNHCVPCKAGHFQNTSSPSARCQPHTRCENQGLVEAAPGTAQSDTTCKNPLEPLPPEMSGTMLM
Chain of LTβR on human tumor cells (SKBR-3, HT29) (P36941 31-435): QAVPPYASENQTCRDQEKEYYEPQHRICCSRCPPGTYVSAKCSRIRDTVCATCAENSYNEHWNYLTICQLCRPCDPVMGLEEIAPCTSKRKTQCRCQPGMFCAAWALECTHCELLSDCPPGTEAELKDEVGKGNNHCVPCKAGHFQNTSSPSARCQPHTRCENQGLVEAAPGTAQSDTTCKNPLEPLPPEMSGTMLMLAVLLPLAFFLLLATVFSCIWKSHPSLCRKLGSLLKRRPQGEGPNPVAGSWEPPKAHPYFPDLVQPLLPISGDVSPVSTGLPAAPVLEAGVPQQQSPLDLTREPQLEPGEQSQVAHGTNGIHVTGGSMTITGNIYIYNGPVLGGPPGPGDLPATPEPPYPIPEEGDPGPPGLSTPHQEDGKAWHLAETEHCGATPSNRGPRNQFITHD
T4 sequence (Q92956 39-202): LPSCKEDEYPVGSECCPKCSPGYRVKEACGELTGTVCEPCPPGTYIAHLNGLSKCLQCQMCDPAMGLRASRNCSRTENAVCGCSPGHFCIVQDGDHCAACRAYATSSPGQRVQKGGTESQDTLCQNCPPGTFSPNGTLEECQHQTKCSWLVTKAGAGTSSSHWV

B1: 71F10 Fab-hLIGHT fusion with the delta 4 linker (BIIB71F10-130) (other)
heavy: EVQLLESGGGLVQPGGSLRLSCAASGFTFSSYGMVWVRQAPGKGLEWVSSISSSGGLTWYADSVKGRFTISRDNSKNTLYLQMNSLRAEDTAVYYCASPPGIAVARDYWGQGTLVTVSSASTKGPSVFPLAPSSKSTSGGTAALGCLVKDYFPEPVTVSWNSGALTSGVHTFPAVLQSSGLYSLSSVVTVPSSSLGTQTYICNVNHKPSNTKVDKKVEPKSCDKLHWRLGEMVTRLPDGPAGSWQERRSHEVNPAAHLTGANSSLTGSGGPLLWETQLGLAFLRGLSYHDGALVVTKAGYYYIYSKVQLGGVGCPLGLASTITHGLYKRTPRYPEELELLVSQQSPCGRATSSSRVWWDSSFLGGVVHLEAGEEVVVRVLDERLVRLRDGTRSYFGAFMV
light: DIQMTQSPSSLSASVGDRVTITCRASQGISNYLAWYQQKPGKVPKLLIYAASTLQSGVPSRFSGSGSGTDFTLTISSLQPEDVATYYCQKYNSALLTFGGGTKVEIKRTVAAPSVFIFPPSDEQLKSGTASVVCLLNNFYPREAKVQWKVDNALQSGNSQESVTEQDSKDSTYSLSSTLTLSKADYEKHKVYACEVTHQGLSSPVTKSFNRGEC
modifications: Assembles as a trimer of heavy/light pairs; one pair is given.
notes: Fab heavy chain fused to human LIGHT extracellular portion; assembles as a trimer (66 kDa x3); also called pBIIB71F10-130; 71F10 Fab-Δ4huLIGHT
[1]
  EC50: 0.05 nM
[2]
  CCL2 (MCP-1) transcript, fold difference test/control, HT29 cells, quantitative RT-PCR: 1050 fold
  CCL5 (RANTES) transcript, fold difference test/control, HT29 cells, quantitative RT-PCR: 1220 fold
  CCL7 (MCP-3) transcript, fold difference test/control, HT29 cells, quantitative RT-PCR: -527 fold
  CCL21 transcript, fold difference test/control, HT29 cells, quantitative RT-PCR: 546 fold
  CCR4 transcript, fold difference test/control, HT29 cells, quantitative RT-PCR: 1650 fold
  CXCL2 transcript, fold difference test/control, HT29 cells, quantitative RT-PCR: 1130 fold
  CXCL3 transcript, fold difference test/control, HT29 cells, quantitative RT-PCR: 1090 fold
  CXCL5 (ENA-78/LIX) transcript, fold difference test/control, HT29 cells, quantitative RT-PCR: 1810 fold
  CXCL9 transcript, fold difference test/control, HT29 cells, quantitative RT-PCR: 675 fold
  CXCL10 (IP-10) transcript, fold difference test/control, HT29 cells, quantitative RT-PCR: 5270 fold
  CXCL11 (I-TAC/IP9) transcript, fold difference test/control, HT29 cells, quantitative RT-PCR: 1730 fold
  IFNA2 transcript, fold difference test/control, HT29 cells, quantitative RT-PCR: 193 fold
  IL5 transcript, fold difference test/control, HT29 cells, quantitative RT-PCR: 940 fold
  IL8 transcript, fold difference test/control, HT29 cells, quantitative RT-PCR: 373 fold
  IL10RA transcript, fold difference test/control, HT29 cells, quantitative RT-PCR: 3440 fold
  LTB transcript, fold difference test/control, HT29 cells, quantitative RT-PCR: 2910 fold
  TNF transcript, fold difference test/control, HT29 cells, quantitative RT-PCR: 7370 fold
[3]
  EC50: 0.5 nM
Human HER2-Fc
  EC50: 0.00955 µg/mL
[4]
  EC50: 0.5 nM
[5]
  EC50: 0.01 nM
[6]
  EC50: 0.2 nM
[7]
  EC50: 0.01 nM
[8]
  koff: 0.000168 s⁻¹
[9]
  koff: 0.000122 s⁻¹
[10]
  koff: 0.000112 s⁻¹
Murine HER2-Fc
  EC50: 0.0114 µg/mL

Source: patent publication US20100119511A1 (Biogen, published 2010)
